Like-named read-outs stand apart in the source and are kept apart here.

Common to all, as to assay: SEC-MALS
(In general: In gel filtration, larger molecules generally elute earlier.)

The target of assay [1] is λ Ea22(1–182) (bacteriophage λ).
The target of assay [2] is λ Ea22(93–182) (bacteriophage λ).
Assay [3] concerns the target λ Ea22(102–182) (bacteriophage λ).
Assay [4] concerns the target λ Ea22(109–182) (bacteriophage λ).
Assay [5] concerns the target φ24B Ea22(135–261) (bacteriophage φ24B).
The target is the same in assay [6]. This is another data set of the same source.
Assay [7] deals with φP27 Ea22(1–315) (bacteriophage φP27).

In turn, λ Ea22(1–182) (natural protein) came in with a stoichiometry N in assay [1] of 4.

Consider λ Ea22(93–182) (domain or fragment), for which the stoichiometry N in assay [2] amounted to 2.

In the case of λ Ea22(102–182) (domain or fragment), the stoichiometry N in assay [3] stood at 2.

In the case of λ Ea22(109–182) (domain or fragment), in assay [4], the stoichiometry N amounted to 2.

As for φ24B Ea22(135–261) (domain or fragment), the stoichiometry N stood at 4 in assay [5] and 2 in assay [6].

As to φP27 Ea22(1–315) (natural protein), the stoichiometry N in assay [7] was 4.

A word on the stoichiometry N: it is a count of units in the complex or per binding partner.

These data come from article PMC7271347.
